Reference: patent US20210171598A1, “PEPTIDE HORMONE WITH ONE OR MORE O-GLYCANS” (priority 2017, published 2021)
No end group written: not given here. *: point of attachment. diST = diST O-glycan, CC(=O)N[C@@H]1[C@@H](O[C@@H]2O[C@H](CO)[C@H](O)[C@H](O[C@]3(C(=O)O)C[C@H](O)[C@@H](NC(C)=O)[C@H]([C@H](O)[C@H](O)CO)O3)[C@H]2O)[C@@H](O)[C@@H](CO[C@]2(C(=O)O)C[C@H](O)[C@@H](NC(C)=O)[C@H]([C@H](O)[C@H](O)CO)O2)O[C@@H]1*; code T = T O-glycan (Galβ1-3GalNAc), CC(=O)N[C@@H]1[C@@H](O[C@@H]2O[C@H](CO)[C@H](O)[C@H](O)[C@H]2O)[C@@H](O)[C@@H](CO)O[C@@H]1*; ST = sialylated T O-glycan

Assays:
[1] = target: dipeptidyl peptidase IV (DPP-IV) (Homo sapiens, UniProt P27487); assay: In vitro degradation by DPP-IV, MALDI-TOF time course
dipeptidyl peptidase IV (DPP-IV), sequence (P27487 whole entry): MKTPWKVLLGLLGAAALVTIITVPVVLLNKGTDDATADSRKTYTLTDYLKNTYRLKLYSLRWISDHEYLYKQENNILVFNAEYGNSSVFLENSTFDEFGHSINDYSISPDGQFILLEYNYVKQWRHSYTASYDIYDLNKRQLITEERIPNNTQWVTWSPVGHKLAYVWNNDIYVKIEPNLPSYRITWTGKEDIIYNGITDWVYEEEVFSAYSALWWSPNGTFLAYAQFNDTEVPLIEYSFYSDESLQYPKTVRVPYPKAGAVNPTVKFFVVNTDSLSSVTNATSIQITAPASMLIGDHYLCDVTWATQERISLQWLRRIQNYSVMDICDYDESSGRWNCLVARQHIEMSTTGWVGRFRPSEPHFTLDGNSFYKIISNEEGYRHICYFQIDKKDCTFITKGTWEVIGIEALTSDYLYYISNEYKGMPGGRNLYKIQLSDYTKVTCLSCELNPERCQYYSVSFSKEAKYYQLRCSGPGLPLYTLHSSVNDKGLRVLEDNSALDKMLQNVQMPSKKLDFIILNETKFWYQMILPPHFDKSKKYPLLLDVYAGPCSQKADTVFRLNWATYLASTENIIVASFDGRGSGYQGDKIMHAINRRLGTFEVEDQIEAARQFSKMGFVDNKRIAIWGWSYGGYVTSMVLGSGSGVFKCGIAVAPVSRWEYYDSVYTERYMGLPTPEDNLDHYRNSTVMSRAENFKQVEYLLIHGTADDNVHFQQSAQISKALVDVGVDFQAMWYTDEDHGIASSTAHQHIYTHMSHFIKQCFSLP
Procedure: (§1) Many peptide hormones are destined for endocrine circulation where they are rapidly degraded with half-lives reaching only a few minutes^6-8.
(§2) For enzymatic degradation assays using either NEP or DPP-IV (R&D systems, UK), an enzyme titration was carried out to ensure full degradation within one hour of reaction time.
(§3) MALDI-TOF-MS was performed on a Bruker Autoflex instrument (Bruker Daltonik GmbH, Bremen, Germany) by mixing the quenched aliquots with a saturated solution of α-Cyano-4-hydroxycinnamic acid in ACN/H2O/TFA (70:30:0.1) at a ratio 1:1 on a target steel plate and mass-spectra were acquired in linear mode.

neprilysin (NEP) = neprilysin (NEP) (Homo sapiens, UniProt P08473); assay: In vitro degradation by neprilysin, MALDI-TOF time course; details: 37° C., MALDI-TOF
neprilysin (NEP), sequence (P08473 whole entry): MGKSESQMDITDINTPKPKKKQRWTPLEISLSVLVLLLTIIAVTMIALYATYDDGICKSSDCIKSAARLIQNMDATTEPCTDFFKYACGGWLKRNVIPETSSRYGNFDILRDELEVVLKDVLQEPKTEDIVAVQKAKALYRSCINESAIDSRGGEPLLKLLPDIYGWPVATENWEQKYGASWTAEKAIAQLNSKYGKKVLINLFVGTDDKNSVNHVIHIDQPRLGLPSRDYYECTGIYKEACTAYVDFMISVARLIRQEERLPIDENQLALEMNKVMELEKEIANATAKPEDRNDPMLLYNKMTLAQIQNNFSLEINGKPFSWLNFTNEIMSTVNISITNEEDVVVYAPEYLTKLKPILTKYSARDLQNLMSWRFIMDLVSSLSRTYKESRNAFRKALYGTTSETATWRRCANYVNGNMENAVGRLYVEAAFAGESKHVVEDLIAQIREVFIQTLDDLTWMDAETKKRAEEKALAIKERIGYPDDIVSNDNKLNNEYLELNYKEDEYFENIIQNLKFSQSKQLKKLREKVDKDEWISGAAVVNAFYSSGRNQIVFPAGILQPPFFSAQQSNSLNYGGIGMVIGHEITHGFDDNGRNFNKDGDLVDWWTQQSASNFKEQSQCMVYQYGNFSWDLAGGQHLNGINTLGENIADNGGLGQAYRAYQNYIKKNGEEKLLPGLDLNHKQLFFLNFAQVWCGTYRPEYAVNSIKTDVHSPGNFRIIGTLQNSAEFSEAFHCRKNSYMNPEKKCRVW
Procedure: as §1, §2, §3
Reactions were performed in 50 mM Tris, 0.05% Brij-35, pH 9 (Neprilysin), or 50 mM Tris, 20 mM NaCl, pH 7.5 (IDE) and incubated at 37° C.

male Sprague Dawley rats = assay: Acute cardiovascular and renal actions of i.v. infusion in anesthetized rats; format: in vivo; details: rat
Description: The protocol is outlined in FIG. 9A.
Rats were then subjected to vessel and bladder cannulation for peptide infusion, BP measurement, blood sampling and urine collection. A polyethylene (PE)-5G tube catheter was placed into the jugular vein for inulin, peptide intravenous infusion. The carotid artery was cannulated with a PE-50 tube catheter for BP measurement (Sonometrics, London, Ontario, Canada) and blood sampling. The bladder was accessed and cannulated with a PE-50 tube catheter for passive urine collection. After completion of the above procedural set up, a 45 min equilibration period was performed that included continuous IV inulin and saline infusion. After the 45 min equilibration period, baseline (Time==Q min) parameters were recorded and one blood sampling (0.7 ml) was performed. The inulin and saline infusion was replaced by a continuous intravenously (i.v.) infusion of equimolar ANP-Ser19/ST or ANP-Ser25/ST for 60 min. The infusion rate was weight adjusted and equals weight*0.7/6000 ml/min. After 60 min infusion (Time=60 min), another blood sampling (0.7 ml) was conducted. […] Urine was collected at the end of the infusion (Time=60 min) and the study (Time=90 min). Urinary sodium was measured with pHOx Ultra (Nova Biomedical, Waltham, Mass.). Urine flow (UV) and urinary sodium excretion (UNaV) were calculated as urine volume or sodium clearance per min, Inulin concentrations were measured with enthrone method and inulin clearance was used for GFR quantification. Urinary cGMP and ANP excretion rate was calculated based on raw values obtained in the urine and UV.

NPR-A receptor = target: T1, NPR-A receptor (UniProt P16066 33-1061, limits assumed); assay: cell-based or functional assay
T1 sequence (looked up): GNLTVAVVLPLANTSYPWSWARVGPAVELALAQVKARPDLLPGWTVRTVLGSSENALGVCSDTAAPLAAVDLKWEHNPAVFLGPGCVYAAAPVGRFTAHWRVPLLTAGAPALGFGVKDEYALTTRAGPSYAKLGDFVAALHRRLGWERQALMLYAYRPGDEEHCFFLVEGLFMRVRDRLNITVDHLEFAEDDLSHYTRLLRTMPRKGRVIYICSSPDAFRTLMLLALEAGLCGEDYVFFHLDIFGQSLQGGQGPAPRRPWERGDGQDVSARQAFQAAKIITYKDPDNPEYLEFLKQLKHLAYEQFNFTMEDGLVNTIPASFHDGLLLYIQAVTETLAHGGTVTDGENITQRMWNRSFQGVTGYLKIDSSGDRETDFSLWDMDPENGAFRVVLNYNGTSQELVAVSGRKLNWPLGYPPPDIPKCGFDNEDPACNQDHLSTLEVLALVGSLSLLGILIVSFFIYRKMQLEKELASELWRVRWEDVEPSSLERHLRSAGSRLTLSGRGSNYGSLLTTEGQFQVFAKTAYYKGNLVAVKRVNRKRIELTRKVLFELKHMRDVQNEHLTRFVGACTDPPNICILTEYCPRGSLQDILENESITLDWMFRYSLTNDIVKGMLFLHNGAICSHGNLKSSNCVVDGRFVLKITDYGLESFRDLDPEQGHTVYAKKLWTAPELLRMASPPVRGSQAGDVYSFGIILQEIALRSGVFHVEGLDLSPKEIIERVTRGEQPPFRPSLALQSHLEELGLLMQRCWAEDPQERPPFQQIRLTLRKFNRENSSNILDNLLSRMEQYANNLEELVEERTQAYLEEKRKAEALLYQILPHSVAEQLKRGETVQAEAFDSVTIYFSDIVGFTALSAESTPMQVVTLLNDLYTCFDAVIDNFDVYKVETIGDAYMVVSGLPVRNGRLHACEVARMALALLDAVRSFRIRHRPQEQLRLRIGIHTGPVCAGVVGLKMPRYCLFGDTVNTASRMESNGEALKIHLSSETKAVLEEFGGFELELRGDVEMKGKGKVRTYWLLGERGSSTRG

[2] = 600 pmol/kg/min i.v., 60 minutes infusion

| Molecule | increase in efficacy, cGMP generated (NPR-A receptor) | potency, cGMP generated (HTRF) (NPR-A receptor) | reduction in efficacy, cGMP generated (NPR-A receptor) | further results |
| --- | --- | --- | --- | --- |
| CC[C@H](C)[C@H](NC(=O)[C@H](Cc1ccccc1)NC(=O)[C@H](CCC(=O)O)NC(=O)[C@H](CCCCN)NC(=O)[C@H](C)NC(=O)[C@H](C)NC(=O)[C@H](CCC(N)=O)NC(=O)CNC(=O)[C@H](CCC(=O)O)NC(=O)[C@H](CC(C)C)NC(=O)[C@H](Cc1ccc(O)cc1)NC(=O)[C@H](CO)NC(=O)[C@H](CO)NC(=O)[C@@H](NC(=O)[C@H](CC(=O)O)NC(=O)[C@H](CO)NC(=O)[C@@H](NC(=O)[C@H](Cc1ccccc1)NC(=O)[C@@H](NC(=O)CNC(=O)[C@H](CCC(=O)O)NC(=O)[C@H](C)NC(=O)[C@@H](N)Cc1c[nH]cn1)[C@@H](C)O)[C@@H](C)O[C@H]1O[C@H](CO)[C@H](O)[C@H](O[C@@H]2O[C@H](CO)[C@H](O)[C@H](O[C@]3(C(=O)O)C[C@H](O)[C@@H](NC(C)=O)[C@H]([C@H](O)[C@H](O)CO)O3)[C@H]2O)[C@H]1NC(C)=O)C(C)C)C(=O)N[C@@H](C)C(=O)N[C@@H](Cc1c[nH]c2ccccc12)C(=O)N[C@@H](CC(C)C)C(=O)N[C@H](C(=O)N[C@@H](CCCCN)C(=O)NCC(=O)N[C@@H](CCCNC(=N)N)C(N)=O)C(C)C [GLP-1-Thr7/ST] |  |  |  | remained fully intact after/until incubation with DPP-IV [1]: 120 min; remained (completely) intact after incubation with NEP (neprilysin (NEP)): 60 min |
| CC[C@H](C)[C@@H]1NC(=O)[C@H](CCCNC(=N)N)NC(=O)[C@H](CC(=O)O)NC(=O)[C@H](CCSC)NC(=O)[C@H](CCCNC(=N)N)NC(=O)CNC(=O)CNC(=O)[C@H](Cc2ccccc2)NC(=O)[C@@H](NC(=O)[C@H](CO)NC(=O)[C@H](CO)NC(=O)[C@H](CCCNC(=N)N)NC(=O)[C@H](CCCNC(=N)N)NC(=O)[C@H](CC(C)C)NC(=O)[C@@H](N)CO)CSSC[C@@H](C(=O)N[C@@H](CC(N)=O)C(=O)N[C@@H](CO)C(=O)N[C@@H](Cc2ccccc2)C(=O)N[C@@H](CCCNC(=N)N)C(=O)N[C@@H](Cc2ccc(O)cc2)C(=O)O)NC(=O)CNC(=O)[C@H](CC(C)C)NC(=O)CNC(=O)[C@H](CO[C@H]2O[C@H](CO)[C@H](O)[C@H](O[C@@H]3O[C@H](CO)[C@H](O)[C@H](O[C@]4(C(=O)O)C[C@H](O)[C@@H](NC(C)=O)[C@H]([C@H](O)[C@H](O)CO)O4)[C@H]3O)[C@H]2NC(C)=O)NC(=O)[C@H](CCC(N)=O)NC(=O)[C@H](C)NC(=O)CNC1=O [ANP-Ser19/ST] |  |  |  | change in mean arterial pressure (MAP) over the infusion period (male Sprague Dawley rats; [2]): decrease; change in plasma cGMP over the infusion period (male Sprague Dawley rats; [2]): increase; MAP in the 30 minutes clearance period (male Sprague Dawley rats; after 60 min infusion): sustained or further reduced; effect on diuresis and natriuresis (male Sprague Dawley rats; i.v. infusion): did not result in increased diuresis nor natriuresis |
| CC[C@H](C)[C@H](NC(=O)[C@H](CO)NC(=O)[C@H](CC(N)=O)NC(=O)[C@H](CC(C)C)NC(=O)[C@H](Cc1ccc(O)cc1)NC(=O)[C@H](CCCCN)NC(=O)[C@H](CCCCN)NC(=O)[C@@H](NC(=O)[C@H](C)NC(=O)[C@H](CCSC)NC(=O)[C@H](CCC(N)=O)NC(=O)[C@H](CCCCN)NC(=O)[C@H](CCCNC(=N)N)NC(=O)[C@H](CC(C)C)NC(=O)[C@H](CCCNC(=N)N)NC(=O)[C@@H](NC(=O)[C@H](Cc1ccc(O)cc1)NC(=O)[C@H](CC(N)=O)NC(=O)[C@H](CC(=O)O)NC(=O)[C@@H](NC(=O)[C@H](Cc1ccccc1)NC(=O)[C@@H](NC(=O)[C@H](C)NC(=O)[C@H](CC(=O)O)NC(=O)[C@H](CO)NC(=O)[C@@H](N)Cc1c[nH]cn1)C(C)C)[C@@H](C)O[C@H]1O[C@H](CO)[C@H](O)[C@H](O[C@@H]2O[C@H](CO)[C@H](O)[C@H](O[C@]3(C(=O)O)C[C@H](O)[C@@H](NC(C)=O)[C@H]([C@H](O)[C@H](O)CO)O3)[C@H]2O)[C@H]1NC(C)=O)[C@@H](C)O)C(C)C)C(=O)N[C@@H](CC(C)C)C(=O)N[C@@H](CC(N)=O)C(N)=O [VIP-Thr7/ST] |  |  |  | partially intact after incubation with DPP-IV [1]: 60 min; remained fully intact after/until incubation with DPP-IV [1]: 30 min; remained (completely) intact after incubation with NEP (neprilysin (NEP)): 60 min |
| SLRRSSCFGGRMDRIGAQSGLGCNSFRY (not fully specified (residue 25); ends and bridges not checked) [ANP with one O-glycan (GalNAc/Tn) at residue 25] | ~20% |  |  |  |
| SLRRSSCFGGRMDRIGAQSGLGCNS(code T)FRY (ends and bridges not checked) [ANP with T O-glycan at residue 25] | ~20% | 265 nM |  |  |
| SLRRSSCFGGRMDRIGAQS(ST)GLGCNSFRY (ends and bridges not checked) [ANP with ST O-glycan at residue 19] |  | 296 nM | ~20% |  |
| SLRRSSCFGGRMDRIGAQS(code T)GLGCNSFRY (ends and bridges not checked) [ANP with T O-glycan at residue 19] |  | 160 nM | ~20% |  |
| SLRRSSCFGGRMDRIGAQSGLGCNS(ST)FRY (ends and bridges not checked) [ANP with ST O-glycan at residue 25] | ~20% | 717 nM |  |  |
| SLRRSSCFGGRMDRIGAQS(diST)GLGCNSFRY (not fully specified (bridges); ends and bridges not checked) [ANP with diST O-glycan at residue 19] |  |  | ~20% |  |
| SLRRSSCFGGRMDRIGAQSGLGCNS(diST)FRY (not fully specified (bridges); ends and bridges not checked) [ANP with diST O-glycan at residue 25] | ~20% |  |  |  |
| SLRRSSCFGGRMDRIGAQSGLGCNSFRY (not fully specified (residue 19); ends and bridges not checked) [ANP with one O-glycan (GalNAc/Tn) at residue 19] |  |  | ~20% |  |
